Laboratory results as given in the DeepSol protein solubility set.

assay: soluble on expression in E. coli; label from the status in PepcDB or PDB records

| Sequence | soluble on expression in E. coli |
| --- | --- |
| MPQSFTSIARIGDYILKSPVLSKLCVPVANQFINLAGYKKLGLKFDDLIAEENPIMQTALRRLPEDESYARAYRIIRAHQTELTHHLLPRNEWIKAQEDVPYLLPYILEAEAAAKEKDELDNIEVSK | soluble |
| MPRISKRQLILESAAAIINEKGADYLTLDAVAQRAGISKGGLFYHFKSKDELIKELVNYANNLYRDNVNQHIGNEKNKKGQWLNAFIEATRAHRTDNAPITSGMLAAQGTNRSLLSPLKTSYQEWQYQITHDGLDEVDATIIRLAVDGLWLSEIFGISAIDEEMREKVIERLKMQIEKN | not soluble |
| MPRPSQRLLSPEIITEAAMRMVDLTGDFTMPGLAERLKVRPSSLYNHVSGRAEIIELMRARMMAGIVVADPDGKWSETVAGLAREYRRNYAEHPRLIPLFTAHTVQSGVAFGLYNALAQAFSDGGFTPEEILHAITTVDSFVLGSALDLAAPEVVWATAPEANEAMLAALATSGPNPGRADAAFEFGLRTLIAGLVAQAPIEP | not soluble |
| MPRSTWFKALLLLVALWAPLSQAETGWQPIQETIRKSDKDNRQYQAIRLDNGMVVLLVSDPQAVKSLSALVVPVGSLEDPEAYQGLAHYLEHMSLMGSKKYPQADSLAEYLKMHGGSHNASTAPYRTAFYLEVENDALPGAVDRLADAIAEPLLDKKYAERERNAVNAELTMARTRDGMRMAQVSAETINPAHPGSKFSGGNLETLSDKPGNPVQQALKDFHEKYYSANLMKAVIYSNKPLPELAKMAADTFGRVPNKESKKPEITVPVVTDAQKGIIIHYVPALPRKVLRVEFRIDNNSAKFRSKTDELITYLIGNRSPGTLSDWLQKQGLVEGISANSDPIVNGNSGVLAISASLTDKGLANRDQVVAAIFSYLNLLREKGIDKQYFDELANVLDIDFRYPSITRDMDYVEWLADTMIRVPVEHTLDAVNIADRYDAKAVKERLAMMTPQNARIWYISPKEPHNKTAYFVDAPYQVDKISAQTFADWQKKAADIALSLPELNPYIPDDFSLIKSEKKYDHPELIVDESNLRVVYAPSRYFASEPKADVSLILRNPKAMDSARNQVMFALNDYLAGLALDQLSNQASVGGISFSTNANNGLMVNANGYTQRLPQLFQALLEGYFSYTATEDQLEQAKSWYNQMMDSAEKGKAFEQAIMPAQMLSQVPYFSRDERRKILPSITLKEVLAYRDALKSGARPEFMVIGNMTEAQATTLARDVQKQLGADGSEWCRNKDVVVDKKQSVIFEKAGNSTDSALAAVFVPTGYDEYTSSAYSSLLGQIVQPWFYNQLRTEEQLGYAVFAFPMSVGRQWGMGFLLQSNDKQPSFLWERYKAFFPTAEAKLRAMKPDEFAQIQQAVITQMLQAPQTLGEEASKLSKDFDRGNMRFDSRDKIVAQIKLLTPQKLADFFHQAVVEPQGMAILSQISGSQNGKAEYVHPEGWKVWENVSALQQTMPLMSEKNE | soluble |
| MPSARLQQQFIRLWQCCEGKSQDTTLNELAALLSCSRRHMRTLLNTMQDRGWLTWEAEVGRGKRSRLTFLYTGLALQQQRAEDLLEQDRIDQLVQLVGDKATVRQMLVSHLGRSFRQGRHILRVLYYRPLRNLLPGSALRRSETHIARQIFSSLTRINEENGELEADIAHHWQQISPLHWRFFLRPGVHFHHGRELEMDDVIASLKRINTLPLYSHIADIVSPTPWTLDIHLTQPDRWLPLLLGQVPAMILPREWETLSNFASHPIGTGPYAVIRNSTNQLKIQAFDDFFGYRALIDEVNVWVLPEIADEPAGGLMLKGPQGEEKEIESRLEEGCYYLLFDSRTHRGANQQVRDWVSYVLSPTNLVYFAEEQYQQLWFPAYGLLPRWHHARTIKSEKPAGLESLTLTFYQDHSEHRVIAGIMQQILASHQVTLKIKEIDYDQWHTGEIESDIWLNSANFTLPLDFSVFAHLCEVPLLQHCIPIDWQADAARWRNGEMNLANWCQQLVASKAMVPLLHHWLIIQGQRSMRGLRMNTLGWFDFKSAWFAPPDP | not soluble |
| MPSEPGKNMIQHAGLGYRRDLAEDFLSLSENSPICFIEAAPENWLKMGGWARKQFDRVAERLPLALHGLSMSLGGQAPLDTDLIDGIKEMMRRYDCTFFSDHLSYCHDGGHLYDLLPLPFTEEMVHHTARRIREVQDRLGCRIAVENTSYYLHSPLAEMNEVEFLNAVAREADCGIHLDVNNIYVNAVNHGLLSPEAFLENVDAERVCYIHIAGHDVETPELLIDTHGAAVLPTVWDLLELAYAKLPTIPPTLLERDFNFPPFSELEAEVAKIADYQTRAGKECRRAA | not soluble |
| MPSGLFMDLLPFLLDANLSATNPPAIPHWWKRQPLIPNLLSQELKNYLKLNVKEKNIQIADQVIIDETAGEVVIGANTRICHGAVIQGPVVIGANCLIGNWICPYISRHLLSLNPLQARCRRYSRGERLEHHHHHH | not soluble |
| MPSIDIDEDTSVETTTMTETPTLDLNAKVEIINFINTFDVKGNCYLYHEGEEKLVSTLLRPDDRKRISLMKELEEARTIRQLHKTRLFKDHPFLKKQKRIILLPYSSISKSHMQTSHYSEREINRTKIINTFWKSKLELHYDAAEASILVCSFLAQNIDRNTHGLGISQSKIAIVLGMSLRRVSDTLNRLEQLGYVRRYTEKAKRGKLSLGTFIQVTENFSSQFLPPKKIVGESEEKQKQGSEHQPQDPPEKHYFQFLQSLNDLRLELKNFIVNSEEPIPPVVLQQIFKVL | not soluble |
| MPSLFSEDKLPALTYHCSVELNGNIYIFGGLMPCYSYEEDAPMLNDFFVDGIKNLPPPLLPQVINNPSMVNNPHLYVASIPSCRFSKPKMGGYIPPPLLCVQGSKLTDRHIFFYGGFEIRTETRGDENGKYHLKKRLYVNNTGYILDIMSFKF | not soluble |
| MPSPARRSRRRRSSLLNFSFSEVDLEQQRRALEMFEQQMNDQAFAQLIHDHDVQHINNDANQVPAAPNTPPVPVPPPVQQPQASPNASPVSVLRRRRYANPEQERFGDISRRIHNPANQIPAAPNTQPEVPPTVQQPESSSQERASPTSPEITIFSTGLLGLRRRSSARISIRMSATAQTNLPITPIRRRRGRAVSPILEIEFENLSSSSSGTSGDSGNHSSPTNTNDQSFIGDDARTYDQEHVPIDFEGPSTSTGITDRHPRRRNQDGSHGECTMCFEVPVSPLGCNNCLQIIGCEECVDIWYRSSSKPSCPLCRRKWARKPDVSKMSVISVRKQSSLRRSKRRITSK | not soluble |
| MPSSGRGGAFFPDPCVFHGAYLPSGSSRWAKESTMFFIAKYKRNTEWLKMIFSNALHGVQEGSGFEWKAFVTLMPTELRVVSLSQELLRLWLVISYTVRDVRTYFFP | not soluble |
| MPSVPRVDRLKPIYTAAKALNFGWRFSDFLKIPAYNGISRYTNQLHRITVRFCKQSESSVGVRNFIENQLVEIGRKNPSVVIYAQPVRNSNPSIRAEYGNGRTLQINAKNMTQDEVSKDVHLLFSRSGEPVVKLESRQSALVPSIQGQWTPITWLPTEMNTEQLPAKQFSKHKSTATSATEYILQNPPK | not soluble |
| MPTKLSNKYHDEIEQNGFTVVRNFLSPQEIEKYTKASEALVQYARDGNWPHVRTRGKQFPPWPKNFSPDIWGVSGLLHPDLGELSKPFHDLYSDEKLLNVVCDILLIEKTDLSMELLNMLINPLTDFELDWHRDTIKPEVTPEEEAEDLLKFPYAGAQFNLALTEDDCLIAIPGSHNRVRTTEEREKTIDPNRRKEFITGEIRVQLQPGDLVFYNNNILHRAAYSSKNKRLTLHGSYGNVNQGKSRAKGILQHGVAEWLPRLETKNTNLKMLQEKLLNLAKEFEGVELGYALDG | soluble |
| MPTSIQFQRSSTAAEAANATVRNYPHHHQKQVQKVSLTRGMADVPEHVELSHTHVVGPSQCFSVVVQDVEAPVSTVWSILSRFEHPQAYKHFVKSCHVVIGDGREVGSVREVRVVSGLPAAFSLERLEIMDDDRHVISFSVVGGDHRLMNYKSVTTVHESEEDSDGKKRTRVVESYVVDVPAGNDKEETCSFADTIVRCNLQSLAKLAENTSKFS | not soluble |
| MPTTVNDLLRTYPADLGGVDREAMARCIEECLRCAQACTACADACLSEPTVADLTKCIRTDMDCADVCTATAAVLSRHTGYDANVTRAVLQACATVCAACGDECARHAGMHEHCRVCAEACRSCEQACQELLAGLGLEHHHHHH | not soluble |
